Test results from patent publication US20190083615A1 (Merck Sharp & Dohme, published 2019).

Biological target: T1, human LAG3 (Lymphocyte Activation Gene-3) expressed on cells (human, UniProt P18627 23-525)
T1 sequence: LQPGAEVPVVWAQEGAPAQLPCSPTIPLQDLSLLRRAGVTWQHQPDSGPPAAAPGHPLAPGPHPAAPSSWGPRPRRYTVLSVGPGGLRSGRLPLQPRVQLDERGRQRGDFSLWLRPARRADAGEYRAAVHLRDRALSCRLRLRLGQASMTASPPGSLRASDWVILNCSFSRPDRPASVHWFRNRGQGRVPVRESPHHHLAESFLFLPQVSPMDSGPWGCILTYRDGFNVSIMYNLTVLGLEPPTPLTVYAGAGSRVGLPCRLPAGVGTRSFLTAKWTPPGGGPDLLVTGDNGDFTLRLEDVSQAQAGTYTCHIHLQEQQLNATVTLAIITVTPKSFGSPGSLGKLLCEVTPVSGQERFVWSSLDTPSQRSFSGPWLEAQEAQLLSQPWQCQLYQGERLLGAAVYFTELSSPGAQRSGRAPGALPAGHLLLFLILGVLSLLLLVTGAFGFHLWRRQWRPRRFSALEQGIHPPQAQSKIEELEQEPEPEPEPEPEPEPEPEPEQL
Test: cell-based or functional assay

B1: Ab6: humanized light chain 45AGX Humanized x[LAG3_H] mAb (LB145.22D2.E1.D1 (VL3)) Kappa (PX) and humanized heavy chain 73AHD Humanized x[LAG3_H] mAb … (antibody)
heavy: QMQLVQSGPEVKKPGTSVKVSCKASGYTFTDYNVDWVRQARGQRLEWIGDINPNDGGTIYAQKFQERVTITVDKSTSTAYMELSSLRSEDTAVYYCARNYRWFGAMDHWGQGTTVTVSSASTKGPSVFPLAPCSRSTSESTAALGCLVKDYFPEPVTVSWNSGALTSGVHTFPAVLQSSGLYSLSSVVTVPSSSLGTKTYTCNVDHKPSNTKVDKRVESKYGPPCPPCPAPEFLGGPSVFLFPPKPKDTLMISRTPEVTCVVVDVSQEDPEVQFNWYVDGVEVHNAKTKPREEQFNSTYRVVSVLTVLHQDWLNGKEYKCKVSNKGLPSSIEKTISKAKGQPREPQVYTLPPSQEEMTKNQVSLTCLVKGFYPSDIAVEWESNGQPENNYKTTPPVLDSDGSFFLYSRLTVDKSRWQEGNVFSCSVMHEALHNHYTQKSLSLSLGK
light: DIVMTQTPLSLSVTPGQPASISCKASQSLDYEGDSDMNWYLQKPGQPPQLLIYGASNLESGVPDRFSGSGSGTDFTLKISRVEAEDVGVYYCQQSTEDPRTFGGGTKVEIKRTVAAPSVFIFPPSDEQLKSGTASVVCLLNNFYPREAKVQWKVDNALQSGNSQESVTEQDSKDSTYSLSSTLTLSKADYEKHKVYACEVTHQGLSSPVTKSFNRGEC
notes: Humanized 22D2 N55D, IgG4 S228P/kappa; also called Hu22D2 VH6/VL3 N55D (Ab 6); hu22D2 VH6/VL3 N55D
IL-2 production by SEB-stimulated PBMC in combination with anti-PD1, fold over anti-PD-1 alone plus isotype control: 1.45 fold
IL-2 production by SEB-stimulated PBMC, fold over isotype control: 1.54 fold
